Our source for the binding force values is patent US20070128623A1.

The target in the experiment is GST-tagged PLD1-PX. Kind of experiment: AFM force measurement; GST-Munc-18-1 on dendron-modified tip, GST-PLD1-PX on dendron-modified Si wafer.

GST-tagged Munc-18-1 yielded a binding force of 50 pN.
